In patent US20230174617A1 (PROGEN, published 2023):
One block for each binder: values may come before it.

Tests used:
[1] = biological target: T1, IL-10 receptor 1 (IL-10R1), IL-10R His-tag protein (UniProt Q13651 22-235, limits assumed); assay: BLI (Octet K2), IL-10R His-tag protein on AR2G sensor
T1 construct: not shown: His tag
T1 sequence (looked up): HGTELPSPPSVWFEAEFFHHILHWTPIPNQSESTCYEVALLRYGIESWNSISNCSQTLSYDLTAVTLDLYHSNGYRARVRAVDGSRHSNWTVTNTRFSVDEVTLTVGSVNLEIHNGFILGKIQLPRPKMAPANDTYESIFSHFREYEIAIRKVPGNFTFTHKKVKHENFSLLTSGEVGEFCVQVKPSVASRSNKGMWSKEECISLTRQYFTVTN
Procedure: (§1) For the analysis, the present inventors attached an IL-10R His-tag protein to a 96-well plate using a Dip and Read™ Amine Reactive 2nd Generation (AR2G) Reagent Kit (forteBio, Cat No. 18-5092). Specifically, 200 μl of D. W. was dispensed into a 96-well plate, and an amine biosensor included in the kit was inserted to perform hydration for 10 minutes. Subsequently, after 200 μl of D. W. was additionally dispensed into a new 96-well plate, EDC and NHS were mixed at 1:1 in an amount of 1/20 of the required sample amount and then diluted with D. W., and 200 μl of the resultant was dispensed into the 96-well plates. Next, the IL-10R His-tag protein was diluted to 10 μg/ml in a 10 mM acetate solution having a pH of 5.0, and then 200 μl of the resultant was added to the 96-well plates. After 200 μl of 1 M ethanolamine was added to the 96-well plates, the biosensor plate and the sample plate were placed in an Octet®-K2 instrument and measured. After the measurement was completed, 200 μl of a 1× kinetics buffer solution was added to the sample plate, and then a baseline was determined.

[2] = biological target: T1, IL-10 receptor 1 (IL-10R1), IL-10R …; assay: BLI (Octet K2), IL-10R His-tag protein on AR2G sensor, fusion protein 62.5 to 1,000 nM
Procedure: as §1

[3] = biological target: anti-DNP mouse IgE (Sigma); assay: BLI (Octet K2), fusion protein on AR2G sensor, anti-DNP mouse IgE as analyte, third test
Procedure: (§2) Specifically, 200 μl of D. W. was dispensed into a 96-well plate, and then an amine biosensor included in the kit was inserted to perform hydration for 10 minutes. Subsequently, after 200 μl of D. W. was additionally dispensed, EDC and NHS were mixed at 1:1 in an amount of 1/20 of the required sample amount and then diluted with D. W., and 200 μl of the resultant was dispensed into the 96-well plate. Next, the FcεRIα-modified IgG4 Fc protein and the FcεRIα-NTIG-IL-10Vm fusion protein were diluted to 10 μg/ml in a 10 mM acetate solution having a pH of 5.0, and then 200 μl of the resultant was added to the 96-well plate. After 200 μl of 1 M ethanolamine was added to the 96-well plate, the biosensor plate and the sample plate were placed in an Octet®-K2 instrument and measured. After the measurement was completed, 200 μl of a 1× kinetics buffer solution was added to the sample plate, and then a baseline was determined.

[4] = biological target: human IgE; assay: BLI (Octet K2), fusion protein on AR2G sensor, human IgE as analyte
[5] = biological target: anti-DNP mouse IgE (Sigma); assay: BLI (Octet K2), fusion protein on sensor, anti-DNP mouse IgE as analyte, third test
Procedure: as §2

[6] = biological target: anti-DNP mouse IgE (Sigma); assay: cell-based or functional assay
[7] = biological target: anti-DNP mouse IgE (Sigma); assay: BLI (Octet K2), fusion protein on sensor, anti-DNP mouse IgE as analyte, second test
Procedure: as §2

[8] = biological target: anti-DNP mouse IgE (Sigma); assay: BLI (Octet K2), fusion protein on AR2G sensor, anti-DNP mouse IgE as analyte, first test
Procedure: as §2

[9] = biological target: anti-DNP mouse IgE (Sigma); assay: BLI (Octet K2), fusion protein on sensor, anti-DNP mouse IgE as analyte, first test
Procedure: as §2

[10] = biological target: anti-DNP mouse IgE (Sigma); assay: BLI (Octet K2), fusion protein on AR2G sensor, anti-DNP mouse IgE as analyte, second test
Procedure: as §2

[11] = biological target: anti-DNP mouse IgE (Sigma); assay: BLI (Octet K2), fusion protein on AR2G sensor, anti-DNP mouse IgE as analyte, mean of three tests
Procedure: as §2

[12] = biological target: T2, Fc gamma receptor I (FcγRI) (UniProt P12314 16-288, limits assumed); assay: BLI; concentrations and the immobilised partner are not given
T2 construct: also called FcγR1

[13] = biological target: T3, Fc gamma receptor IIIa (FcγRIIIa) (UniProt P08637 17-208, limits assumed); assay: as above
T3 construct: also called FcγR3a

[14] = biological target: FcγRIIIb (UniProt O75015 17-200, limits assumed); assay: BLI, single trace with fit; PBS panel as control
[15] = biological target: T4, FcγRIIb (UniProt P31994 46-217, limits assumed); assay: BLI, single trace with fit; PBS panel as control
T4 sequence (looked up): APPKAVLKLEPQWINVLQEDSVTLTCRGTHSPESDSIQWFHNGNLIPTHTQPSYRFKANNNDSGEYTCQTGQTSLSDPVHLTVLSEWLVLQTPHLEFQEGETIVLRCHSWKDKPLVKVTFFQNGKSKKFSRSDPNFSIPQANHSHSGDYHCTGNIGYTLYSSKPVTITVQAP

[16] = biological target: T5, FcγRIIa (UniProt P12318 36-218, limits assumed); assay: BLI, single trace with fit; PBS panel as control
T5 sequence (looked up): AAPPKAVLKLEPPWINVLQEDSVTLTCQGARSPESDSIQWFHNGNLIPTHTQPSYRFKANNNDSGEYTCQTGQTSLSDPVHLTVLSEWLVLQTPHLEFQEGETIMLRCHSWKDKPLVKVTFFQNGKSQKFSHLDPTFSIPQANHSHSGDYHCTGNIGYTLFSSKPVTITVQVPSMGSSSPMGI

[17] = biological target: T6, complement C1q (UniProt P02745 23-245; P02746 28-253; P02747 29-245); assay: ELISA, PG-11 coated at 2 µg/ml, C1q in varied concentration, OD 450 nm
T6 construct: the method text names a C1q-HRP conjugate; also called C1q-HRP conjugate
Procedure: Subsequently, 100 μl of each diluted sample was loaded into each well and reacted overnight at 4° C. Next, washing was performed three times by adding 300 μl of a washing buffer solution to the plate each time, 200 μl of a blocking buffer solution (2% BSA/PBS) was added to each well and reacted at room temperature for 2 hours. 300 μl of the washing buffer solution was added to the plate, then washing was repeatedly performed three times, an anti-C1q antibody was diluted with an assay buffer solution to 10, 3, 1, 0.3, and 0.1 μg/ml by ⅓, and mixed (duplication) in an amount of 50 μl in each well, and then the resultant was reacted at room temperature for 2 hours. Then, the washing buffer solution was mixed in the plate by 300 μl each time and washing was repeatedly performed eight times. A C1q-HRP conjugate was diluted 400-fold, and 50 μl of the resultant was added to each well and reacted at room temperature for 1 hour. The washing buffer solution was added to the plate by 300 μl each time, washing was repeatedly performed eight times, 50 μl of TMB as a substrate was mixed, and the resultant was reacted at room temperature. When the color development reaction appeared in blue, 50 μl of a stop solution was added to each well to stop the reaction, and then optical density was measured using a microplate reader set at 450 nm.

[18] = biological target: T7, recombinant human neonatal Fc receptor (rhFcRn, R&D systems) (human, UniProt P55899 24-297; P61769 21-119); assay: SPR, steady state affinity, rhFcRn on chip, pH 6.0
T7 construct: Bought reagent; also called recombinant FcRn
Procedure: (§3) As the analyzer, Biocore 8K (GE Healthcare, USA) was used, and all reagents used in the analysis were purchased from GE Healthcare. […] The experiment was performed at a flow rate of 30 μl/min at 25° C., an association of an analyte was performed for 60 seconds, and then dissociation was performed for 60 seconds. […] At this time, the buffer solution was replaced with a PBS buffer solution having a pH of 7.4 during regeneration.
(§4) During the regeneration, a PBS buffer solution having a pH of 7.4 was used.

[19] = biological target: T7, recombinant human neonatal Fc receptor …; assay: SPR, rhFcRn on CM5, analyte in PBST pH 6.0, steady state affinity
Excerpt: as §4

[20] = biological target: T7, recombinant human neonatal Fc receptor …; assay: SPR (Biacore 8K), rhFcRn amine-coupled on CM5, analyte in PBST pH 6.0, steady state affinity
Procedure: as §3

T3 sequence (P08637 17-208 limits assumed): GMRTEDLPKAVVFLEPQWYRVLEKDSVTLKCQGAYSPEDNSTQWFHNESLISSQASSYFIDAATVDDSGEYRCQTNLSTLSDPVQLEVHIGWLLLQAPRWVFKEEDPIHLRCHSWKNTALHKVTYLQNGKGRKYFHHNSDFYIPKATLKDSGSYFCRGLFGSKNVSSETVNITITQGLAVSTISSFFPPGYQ
Chain of FcγRIIIb (O75015 17-200 limits assumed): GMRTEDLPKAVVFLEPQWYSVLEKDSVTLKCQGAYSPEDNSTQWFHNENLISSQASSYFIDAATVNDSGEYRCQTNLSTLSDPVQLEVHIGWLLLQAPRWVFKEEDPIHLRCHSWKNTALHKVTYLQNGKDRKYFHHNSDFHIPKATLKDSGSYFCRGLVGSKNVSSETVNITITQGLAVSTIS
T6 sequence (P02745 23-245 limits assumed, chain 1 of 3): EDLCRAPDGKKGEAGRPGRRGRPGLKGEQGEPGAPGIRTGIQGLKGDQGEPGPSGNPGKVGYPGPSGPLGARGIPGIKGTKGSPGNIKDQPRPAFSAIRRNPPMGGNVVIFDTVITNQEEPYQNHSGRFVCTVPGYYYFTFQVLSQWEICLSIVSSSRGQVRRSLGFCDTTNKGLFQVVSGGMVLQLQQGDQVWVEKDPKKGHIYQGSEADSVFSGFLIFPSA
T6 sequence (P02746 28-253 limits assumed, chain 2 of 3): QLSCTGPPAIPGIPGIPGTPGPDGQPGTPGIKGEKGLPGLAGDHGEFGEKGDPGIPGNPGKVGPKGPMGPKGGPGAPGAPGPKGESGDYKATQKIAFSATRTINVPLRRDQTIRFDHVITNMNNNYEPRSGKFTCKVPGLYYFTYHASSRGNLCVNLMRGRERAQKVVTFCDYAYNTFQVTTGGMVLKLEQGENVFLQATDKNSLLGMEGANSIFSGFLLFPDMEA
T6 sequence (P02747 29-245 limits assumed, chain 3 of 3): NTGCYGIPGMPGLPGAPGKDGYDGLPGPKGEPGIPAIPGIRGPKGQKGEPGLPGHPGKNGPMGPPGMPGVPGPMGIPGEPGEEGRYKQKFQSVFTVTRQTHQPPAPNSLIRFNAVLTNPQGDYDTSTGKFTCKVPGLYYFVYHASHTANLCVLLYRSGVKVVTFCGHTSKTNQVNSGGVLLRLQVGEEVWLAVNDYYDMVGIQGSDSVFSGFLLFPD
T2 sequence (P12314 16-288 limits assumed): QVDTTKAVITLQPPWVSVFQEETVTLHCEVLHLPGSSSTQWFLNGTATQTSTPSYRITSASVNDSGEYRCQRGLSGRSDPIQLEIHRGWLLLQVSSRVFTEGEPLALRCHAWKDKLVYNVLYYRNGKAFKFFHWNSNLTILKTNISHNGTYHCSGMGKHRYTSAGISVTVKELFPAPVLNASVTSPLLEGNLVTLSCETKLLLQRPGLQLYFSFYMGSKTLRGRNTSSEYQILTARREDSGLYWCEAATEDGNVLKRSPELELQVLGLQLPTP

B1: PG-088 (NTIG-IL-10V) (Fc fusion)
chain: GGGGSGGGGSGGGGSEPKSSDKTHTCPPCPSHTQPLGVFLFPPKPKDQLMISRTPEVTCVVVDVSQEDPEVQFNWYVDGVEVHNAKTKPREEQFNSTYRVVSVLTVLHQDWLNGKEYKCKVSNKGLPSSIEKTISKAKGQPREPQVYTLPPSQEEMTKNQVSLTCLVKGFYPSDIAVEWESNGQPENNYKTTPPVLDSDGSFFLYSRLTVDKSRWQEGNVFSCSVLHEALHNHYTQKSLSLSLGKAAGSGGGGGSGGGGSGGGGSSPGQGTQSENSCTHFPGNLPNMLRDLRDAFSRVKTFFQMKDQLDNLLLKESLLEDFKGYLGCQALSEMIQFYLEEVMPQAENQDPDAKAHVNSLGENLKTLRLRLRRCHRFLPCENKSKAVEQVKNAFNKLQEKGIYKAMSEFDIFINYIEAYMTMKIRN
notes: also called dimeric IL-10 variant fusion protein
koff [1]: 0.0008 s⁻¹
kon [1]: 71100 M⁻¹ s⁻¹
Kd [2]: 0.0111 µM

B2: PG-088m (NTIG-IL-10Vm) (Fc fusion)
chain: SHTQPLGVFLFPPKPKDQLMISRTPEVTCVVVDVSQEDPEVQFNWYVDGVEVHNAKTKPREEQFNSTYRVVSVLTVLHQDWLNGKEYKCKVSNKGLPSSIEKTISKAKGQPREPQVYTLPPSQEEMTKNQVSLTCLVKGFYPSDIAVEWESNGQPENNYKTTPPVLDSDGSFFLYSRLTVDKSRWQEGNVFSCSVLHEALHNHYTQKSLSLSLGAAGSGGGGGSGGGGSGGGGSSPGQGTQSENSCTHFPGNLPNMLRDLRDAFSRVKTFFQMKDQLDNLLLKESLLEDFKGYLGCQALSEMIQFYLEEVMPQAENQDPDAKAHVNSLGENLKTLRLRLRRCHRFLPCENGGSGGSGGSKSKAVEQVKNAFNKLQEKGIYKAMSEFDIFINYIEAYMTMKIRN
notes: also called monomeric IL-10 variant fusion protein
fold KD against the dimeric IL-10 fusion protein of Example 2-3 [1]: ~3 fold
koff [1]: 0.0006 s⁻¹
kon [1]: 20600 M⁻¹ s⁻¹
Kd [2]: 0.0292 µM

Results, then the binder that gave them:

Kd [3]: 0.000346 µM
Kd [4]: 0.000346 µM
koff [4]: 7.59e-05 s⁻¹
kon [4]: 219000 M⁻¹ s⁻¹
koff [5]: 4.82e-05 s⁻¹
kon [5]: 139000 M⁻¹ s⁻¹
IC50 (nM), β-hexosaminidase release from mouse marrow-derived mast cells, column headed 'Fourth test' (equals the mean of the three tests) [6]: 16.9 nM
IC50 (nM), β-hexosaminidase release from mouse marrow-derived mast cells, first test [6]: 21.6 nM
IC50 (nM), β-hexosaminidase release from mouse marrow-derived mast cells, second test [6]: 14.8 nM
IC50 (nM), β-hexosaminidase release from mouse marrow-derived mast cells, third test [6]: 14.4 nM
koff [7]: 4.06e-05 s⁻¹
kon [7]: 144000 M⁻¹ s⁻¹
Kd [8]: 0.000224 µM
koff [9]: 3.4e-05 s⁻¹
kon [9]: 152000 M⁻¹ s⁻¹
Kd [10]: 0.000282 µM
Kd [11]: 0.000284 µM
B3: PG-110 (FcεRIα-NTIG-IL-10Vm) (Fc fusion)
chain: VPQKPKVSLNPPWNRIFKGENVTLTCNGNNFFEVSSTKWFHNGSLSEETNSSLNIVNAKFEDSGEYKCQHQQVNESEPVYLEVFSDWLLLQASAEVVMEGQPLFLRCHGWRNWDVYKVIYYKDGEALKYWYENHNISITNATVEDSGTYYCTGKVWQLDYESEPLNITVIKAPREKYWLQGGGGSGGGGSGGGGSEPKSSDKTHTCPPCPSHTQPLGVFLFPPKPKDQLMISRTPEVTCVVVDVSQEDPEVQFNWYVDGVEVHNAKTKPREEQFNSTYRVVSVLTVLHQDWLNGKEYKCKVSNKGLPSSIEKTISKAKGQPREPQVYTLPPSQEEMTKNQVSLTCLVKGFYPSDIAVEWESNGQPENNYKTTPPVLDSDGSFFLYSRLTVDKSRWQEGNVFSCSVLHEALHNHYTQKSLSLSLGAAGSGGGGGSGGGGSGGGGSSPGQGTQSENSCTHFPGNLPNMLRDLRDAFSRVKTFFQMKDQLDNLLLKESLLEDFKGYLGCQALSEMIQFYLEEVMPQAENQDPDAKAHVNSLGENLKTLRLRLRRCHRFLPCENGGSGGSGGSKSKAVEQVKNAFNKLQEKGIYKAMSEFDIFINYIEAYMTMKIRN
notes: Produced in a CHO DG44 cell line

binding result [12]: no binding
binding result [13]: no binding
binding result [14]: no binding
binding result [15]: no binding
binding result [16]: no binding
binding result [17]: no binding (tested: 10.0 µg/mL)
fold affinity against Rituximab [18]: ~9.3 fold
fold affinity against Trulicity [18]: ~5.3 fold
Kd [19]: 0.256 µM
Kd [20]: 0.397 µM
B4: PG-11 (GLP-1E-NTIG) (Fc fusion)
chain: HGEGTFTSDVSSYLEGQAAKEFIAWLVKGGPSSGAPPPSGGGGSGGGGSGGGGSEKEKEEQEERTHTCPPCPSHTQPLGVFLFPPKPKDQLMISRTPEVTCVVVDVSQEDPEVQFNWYVDGVEVHNAKTKPREEQFNSTYRVVSVLTVLHQDWLNGKEYKCKVSNKGLPSSIEKTISKAKGQPREPQVYTLPPSQEEMTKNQVSLTCLVKGFYPSDIAVEWESNGQPENNYKTTPPVLDSDGSFFLYSRLTVDKSRWQEGNVFSCSVLHEALHNHYTQKSLSLSLGK
notes: Produced in ExpiCHO and purified on protein A. The hinge is said in general to dimerise the fusion, but no copy number is stated for PG-11; also called PG-II
